Laboratory results taken from article PMC11162425.

Experiments:
[1] = target: Lcl-N GFP fusion (N-GFP) (Legionella pneumophila strain 130b); assay: SEC
[2] = target: Legionella collagen-like protein (Lcl) from L. pneumophila strain 130b, intact recombinant (residues 1-401) (Legionella pneumophila strain 130b); assay: SEC-MALS

Row | Substance | stoichiometry N [1] | stoichiometry N [2]
1 | Lcl-N GFP fusion (N-GFP) (domain or fragment) | 3 | –
2 | Legionella collagen-like protein (Lcl) from L. pneumophila strain 130b, intact recombinant (residues 1-401) (natural protein) | – | 3
